The values that follow come from patent US20090117590A1, “Human calcium sensitive potassium channel beta3 subunit proteins, encoding nucleic acid and uses thereof” (priority 1999, published 2009).

Where two headings read alike, the source gives them in different places.

Test [1] concerns α subunit of a human calcium sensitive potassium channel (human Slowpoke α). The experiment in a line: Electrophysiological analysis of β subunits co-expressed with the α subunit in Xenopus oocytes, inside-out patches. The format is cell-based. As to conditions: for changes in the kinetics and voltage dependence of the channels formed by α subunits / V1/2 (half-maximal activation, Boltzmann fit to normalized conductances): inside-out patches, internal Ca2+ 30 μM; for changes in the kinetics and voltage dependence of the channels formed by α subunits: α and β cRNAs 1:10; for shift of the voltage dependence compared to channels containing only α subunits: micromolar intracellular Ca2+; for inactivation of calcium sensitive potassium currents: co-expressed with the α subunit; for V1/2 (half-maximal activation, Boltzmann fit to normalized conductances): α and β cRNAs 1:10 (β in excess), α subunit alone 20 mV. Here is the method:
The voltage clamp protocol consisted of a pre-pulse to −160 mV (200 ms), followed by 20 mV depolarizing steps from −80 to +80 mV (500 ms); holding potential was −80 mV; internal Ca^2+ was 30 μM. […] FIG. 7B: Boltzmann equations were fit to normalized conductances for the records shown in 7A, which were calculated from peak currents and plotted as function of test potential. V1/2 values are: 20 mV (α subunit alone); −55 mV (α+β2 subunit); 45.36 mV (α+β3α subunit); 20 mV (α+β3c subunit). […] Inactivation rates and fractional inactivating current were calculated as described in Example 2.
The β2, β3a, β3b, β3c, and β3d subunits of the human calcium sensitive potassium channel have been expressed in Xenopus oocytes, both by themselves and in combination with an α subunit of a large-conductance calcium-sensitive potassium channel (maxi-K channel). […] The rates of inactivation produced by β2, β3a and β3c are dependent upon voltage and internal calcium concentration; inactivation time constants reach a maximum at high depolarizations and high micromolar calcium for β2, β3a and β3c, τinact ˜30-40 ms at 80 mV with 30 μM intracellular Ca^2+. […] (McManus et al., 1995, Neuron 14:645-650).
Electrophysiological analysis: cRNAs were synthesized in vitro from plasmids encoding human Slowpoke α or the β2, β3a, β3b, β3c, or β3d subunits and injected into Xenopus oocytes (1.5 ng/oocyte of α subunit RNA +/−β subunit RNA at 1, 5, or 10× molar excess). Calcium sensitive potassium currents were recorded in inside-out patches. Recordings were performed under ionic conditions of symmetrical potassium. The standard pipette and bath solutions contained 116 mM potassium gluconate, 4 mM potassium chloride, 10 mM HEPES, pH 7.2. CaCl2 was added to the bath solution to give final concentrations of free ionized calcium of 3-30 μM, taking into account the stability constant for calcium gluconate (15.9 M^−1). Currents were recorded using an EPC-7 amplifier (HEKA). The pClamp6.0 program (Axon Instruments) was used to generate voltage-clamp commands for data acquisition, and for analysis. NPO-voltage relations were determined at 3, 10 and 30 μM bath calcium using two methods: (1) calculation of macroscopic conductance from peak or steady-state currents at test potentials (−80 to 80 mV), or (2) measurement or calculation of tail currents peaks (−80 mV) at test potentials. Boltzmann functions were fit to the data and used to derive the half-maximal activation parameter (V1/2). Maximal inactivation parameters (30 μM Ca^2+ and 80 mV) were calculated from current traces or averaged current traces. Inactivation rates were determined from single exponential fits. Fractional non-inactivating current was calculated as steady-state/peak current; fractional inactivating current was estimated as peak current minus steady-state current divided by peak current.

For test [2] the test system is unchanged. Conditions: previously described (McManus et al., 1995); cited from earlier work.

B1: β3d: β3d subunit of human calcium sensitive potassium channel, amino acid sequence SEQ. ID. NO.:10 (protein)
chain: MDFSPSSELGFHFVAFILLTRHRTAFPASGKKRETDYSDGDPLDVHKRLPSSTGEDRAVMLGFAMMGFSVLMFFLLGTTILKPFMLSIQREESTCTAIHTDIMDDWLDCAFTCGVHCHGQGKYPCLQVFVNLSHPGQKALLHYNEEAVQINPKCFYTPKCHQDRNDLLNSALDIKEFFDHKNGTPFSCFYSPASQSEDVILIKKYDQMAIFHCLFWPSLTLLGGALIVGMVRLTQHLSLLCEKYSTVVRDEVGGKVPYIEQHQFKLCIMRRSKGRAEKS
Turning to B1, in test [1], the “changes in the kinetics and voltage dependence of the channels formed by α subunits” value is given as “did not induce noticeable changes”; the “shift of the voltage dependence compared to channels containing only α subunits” value (from here on “shift of the voltage dependence”) is listed as “do not shift the voltage dependence”.

B2: β3a: β3a subunit of human calcium sensitive potassium channel, amino acid sequence SEQ. ID. NO.:4 (protein, listed as Homo Sapiens)
chain: MQPFSIPVQITLQGSRRRQGRTAFPASGKKRETDYSDGDPLDVHKRLPSSTGEDRAVMLGFAMMGFSVLMFFLLGTTILKPFMLSIQREESTCTAIHTDIMDDWLDCAFTCGVHCHGQGKYPCLQVFVNLSHPGQKALLHYNEEAVQINPKCFYTPKCHQDRSDLLNSALDIKEFFDHKNGTPFSCFYSPASQSEDVILIKKYDQMAIFHCLFWPSLTLLGGALIVGMVRLTQHLSLLCEKYSTVVRDEVGGKVPYIEQHQFKLCIMRRSKGRAEKS
With B2, in test [1], the “inactivation of calcium sensitive potassium currents” value is on record as “induce inactivation”; the “V1/2 (half-maximal activation, Boltzmann fit to normalized conductances)” value is reported as 45.36 mV; the “shift of the voltage dependence” value was “do not shift the voltage dependence”.

B3: β2: β2 subunit of human calcium sensitive potassium channel, amino acid sequence SEQ. ID. NO.:2 (protein, listed as Homo Sapiens)
chain: MFIWTSGRTSSSYRHDEKRNIYQKIRDHDLLDKRKTVTALKAGEDRAILLGLAMMVCSIMMYFLLGITLLRSYMQSVWTEESQCTLLNASITETFNCSFSCGPDCWKLSQYPCLQVYVNLTSSGEKLLLYHTEETIKINQKCSYIPKCGKNFEESMSLVNVVMENFRKYQHFSCYSDPEGNQKSVILTKLYSSNVLFHSLFWPTCMMAGGVAIVAMVKLTQYLSLLCERIQRINR
As for B3, in test [1], the “inactivation of calcium sensitive potassium currents” value was “induce inactivation” and the “V1/2 (half-maximal activation, Boltzmann fit to normalized conductances)” value is reported as −55 mV. In addition, in test [1] (towards negative potentials, with 30 μM Ca2+ in the bath), the “shift in the voltage dependence of activation” value was ~80 mV.

B4: β1: previously known human calcium sensitive potassium channel β1 subunit, SEQ. ID. NO.:11, GenBank U25138 (protein)
chain: MVKKLVMAQKRGETRALCLGVTMVVCAVITYYILVTTVLPLYQKSVWTQESKCHLIETNIRDQEELKGKKVPQYPCLWVNVSAAGRWAVLYHTEDTRDQNQQCSYIPGSVDNYQTARADVEKVRAKFQEQQVFYCFSAPRGNETSVLFQRLYGPQALLFSLFWPTFLLTGGLLIIAMVKSNQYLSILAAQK
For B4, the “inactivation of calcium sensitive potassium currents” value in test [2] is on record as “do not induce inactivation”.

B5: β3c: β3c subunit of human calcium sensitive potassium channel, amino acid sequence SEQ. ID. NO.:8 (protein)
chain: MFPLLYELTAVSPSPFPQRTAFPASGKKRETDYSDGDPLDVHKRLPSSTGEDRAVMLGFAMMGFSVLMFFLLGTTILKPFMLSIQREESTCTAIHTDIMDDWLDCAFTCGVHCHGQGKYPCLQVFVNLSHPGQKALLHYNEEAVQINPKCFYTPKCHQDRSDLLNSALDIKEFFDHKNGTPFSCFYSPASQSEDVILIKKYDQMAIFHCLFWPSLTLLGGALIVGMVRLTQHLSLLCEKYSTVVRDEVGGKVPYIEQHQFKLCIMRRSKGRAEKS
In the case of B5, in test [1], the “inactivation of calcium sensitive potassium currents” value is on record as “induce inactivation”; the “V1/2 (half-maximal activation, Boltzmann fit to normalized conductances)” value amounted to 20 mV; the “shift of the voltage dependence” value is listed as “do not shift the voltage dependence”.

B6: β3b: β3b subunit of human calcium sensitive potassium channel, amino acid sequence SEQ. ID. NO.:6 (protein, listed as Homo Sapiens)
chain: MTAFPASGKKRETDYSDGDPLDVHKRLPSSTGEDRAVMLGFAMMGFSVLMFFLLGTTILKPFMLSIQREESTCTAIHTDIMDDWLDCAFTCGVHCHGQGKYPCLQVFVNLSHPGQKALLHYNEEAVQINPKCFYTPKCHQDRNDLLNSALDIKEFFDHKNGTPFSCFYSPASQSEDVILIKKYDQMAIFHCLFWPSLTLLGGALIVGMVRLTQHLSLLCEKYSTVVRDEVGGKVPYIEQHQFKLCIMRRSKGRAEKS
Regarding B6, in test [1], the “changes in the kinetics and voltage dependence of the channels formed by α subunits” value is listed as “did not induce noticeable changes”; the “shift of the voltage dependence” value is “do not shift the voltage dependence”.
